Experimental data as given in patent publication US8389575B2, “Control of enzymatic peracid generation” (E.I. du Pont de Nemours and Company, priority 2008, dated 2013).

Experiments:
[1] = Peracetic acid production and reaction pH over time, Thermotoga maritima MSB8 perhydrolase, selection of buffer, reactant and perhydrolase concentrations; type: biochemical; settings: triacetin 100 mM
Description: Reactions (10 mL total volume) containing triacetin (100 mM), hydrogen peroxide (100 mM or 250 mM) and heat-treated, centrifuged cell extract supernatant (35 to 100 μg total heat-treated extract protein/mL, prepared as described in Example 13) prepared from an E. coli transformant expressing perhydrolase from Thermotoga maritima MSB8 (KLP18/pSW207) in sodium citrate (50 mM, pH 6.5) buffer, or in sodium bicarbonate buffer (1 mM to 5 mM, initial pH as indicated in Table 12), or in water without added buffer were run at 25° C. A control reaction for each reaction condition was run to determine the concentration of peracetic acid produced by chemical perhydrolysis of triacetin by hydrogen peroxide in the absence of added extract protein. Determination of the concentration of peracetic acid in the reaction mixtures was performed according to the method described by Karst et al., supra. The peracetic acid concentration produced at predetermined reaction times is listed in Table 11, and the corresponding reaction pH at each reaction time is listed in Table 12.

[2] = Peracetic acid production by Thermotoga maritima MSB8 perhydrolase, control by bicarbonate buffer concentration; type: biochemical; settings: 100 mM triacetin
Description: A cell extract of a transformant expressing perhydrolase from Thermotoga maritima MSB8 (KLP18/pSW207) was prepared by passing a suspension of cell paste (20 wt % wet cell weight) in 0.05 M potassium phosphate buffer (pH 7.0) containing dithiothreitol (1 mM) twice through a French press having a working pressure of 16,000 psi (˜110 MPa). The crude extract was then centrifuged at 20,000×g to remove cellular debris, producing a clarified cell extract that was assayed for total soluble protein (Bicinchoninic Acid Kit for Protein Determination, Sigma Aldrich catalog #BCA1-KT). The clarified extract was heated for 20 min at 75° C., followed immediately by cooling in an ice/water bath. The resulting mixture was centrifuged to remove precipitated protein, and the supernatant collected and assayed for total soluble protein as before. […] The supernatant was frozen in dry ice and stored at −80° C.
Reactions (2 mL total volume) containing triacetin, hydrogen peroxide and heat-treated, centrifuged cell extract supernatant (prepared as described above) were run at 25° C. using sodium bicarbonate buffer concentrations listed in Tables 9 and 10. A control reaction for each reaction condition was run to determine the concentration of peracetic acid produced by chemical perhydrolysis of triacetin by hydrogen peroxide in the absence of added extract protein. Determination of the concentration of peracetic acid in the reaction mixtures was performed according to the method described by Karst et al., supra. The peracetic acid concentrations produced in 1 min, 5 min and 30 min using either 250 mM or 100 mM hydrogen peroxide are listed in Table 9 and Table 10.

[3] = bicarbonate, 1 mM, H2O2 100 mM, total protein 75 μg/mL
[4] = bicarbonate, 1 mM, H2O2 100 mM, total protein 100 μg/mL
[5] = bicarbonate, 1 mM, H2O2 250 mM, total protein 35 μg/mL
[6] = bicarbonate, 1 mM, H2O2 250 mM, total protein 50 μg/mL
[7] = bicarbonate, 2.5 mM, H2O2 100 mM, total protein 50 μg/mL
[8] = bicarbonate, 5 mM, H2O2 100 mM, total protein 50 μg/mL
[9] = citrate, 50 mM, H2O2 100 mM, total protein 50 μg/mL
[10] = water (no buffer), H2O2 250 mM, total protein 75 μg/mL
[11] = water (no buffer), H2O2 250 mM, total protein 100 μg/mL

PAA (ppm), 1 min [1, 3]: 434 ppm
PAA (ppm), 5 min [1, 3]: 494 ppm
PAA (ppm), 30 min [1, 3]: 608 ppm
PAA (ppm), 2 h [1, 3]: 673 ppm
PAA (ppm), 18 h [1, 3]: 576 ppm
PAA (ppm), 1 min [1, 4]: 449 ppm
PAA (ppm), 5 min [1, 4]: 667 ppm
PAA (ppm), 30 min [1, 4]: 643 ppm
PAA (ppm), 2 h [1, 4]: 703 ppm
PAA (ppm), 18 h [1, 4]: 613 ppm
PAA (ppm), 1 min [1, 5]: 467 ppm
PAA (ppm), 5 min [1, 5]: 1047 ppm
PAA (ppm), 30 min [1, 5]: 1041 ppm
PAA (ppm), 2 h [1, 5]: 1014 ppm
PAA (ppm), 18 h [1, 5]: 917 ppm
PAA (ppm), 1 min [1, 6]: 624 ppm
PAA (ppm), 5 min [1, 6]: 1060 ppm
PAA (ppm), 30 min [1, 6]: 1090 ppm
PAA (ppm), 2 h [1, 6]: 1063 ppm
PAA (ppm), 18 h [1, 6]: 1021 ppm
PAA (ppm), 1 min [1, 7]: 256 ppm
PAA (ppm), 5 min [1, 7]: 722 ppm
PAA (ppm), 30 min [1, 7]: 976 ppm
PAA (ppm), 2 h [1, 7]: 887 ppm
PAA (ppm), 18 h [1, 7]: 855 ppm
PAA (ppm), 1 min [1, 8]: 410 ppm
PAA (ppm), 5 min [1, 8]: 1088 ppm
PAA (ppm), 30 min [1, 8]: 1496 ppm
PAA (ppm), 2 h [1, 8]: 1423 ppm
PAA (ppm), 18 h [1, 8]: 1419 ppm
PAA (ppm), 1 min [1, 9]: 409 ppm
PAA (ppm), 5 min [1, 9]: 892 ppm
PAA (ppm), 30 min [1, 9]: 2001 ppm
PAA (ppm), 2 h [1, 9]: 2254 ppm
PAA (ppm), 18 h [1, 9]: 1937 ppm
PAA (ppm), 1 min [1, 10]: 512 ppm
PAA (ppm), 5 min [1, 10]: 535 ppm
PAA (ppm), 30 min [1, 10]: 533 ppm
PAA (ppm), 2 h [1, 10]: 472 ppm
PAA (ppm), 18 h [1, 10]: 448 ppm
PAA (ppm), 1 min [1, 11]: 576 ppm
PAA (ppm), 5 min [1, 11]: 668 ppm
PAA (ppm), 30 min [1, 11]: 654 ppm
PAA (ppm), 2 h [1, 11]: 618 ppm
PAA (ppm), 18 h [1, 11]: 543 ppm
PAA (ppm), 1 min ([2]; NaHCO3 0 mM, initial pH 5.0, 1 min, 100 mM H2O2, 50 μg/mL heated extract total protein): 125 ppm
PAA (ppm), 1 min ([2]; NaHCO3 0 mM, initial pH 5.0, 1 min, 250 mM H2O2, 50 μg/mL heated extract total protein): 233 ppm
PAA (ppm), 5 min ([2]; NaHCO3 0 mM, initial pH 5.0, 5 min, 100 mM H2O2, 50 μg/mL heated extract total protein): 121 ppm
PAA (ppm), 5 min ([2]; NaHCO3 0 mM, initial pH 5.0, 5 min, 250 mM H2O2, 50 μg/mL heated extract total protein): 290 ppm
PAA (ppm), 30 min ([2]; NaHCO3 0 mM, initial pH 5.0, 30 min, 100 mM H2O2, 50 μg/mL heated extract total protein): 105 ppm
PAA (ppm), 30 min ([2]; NaHCO3 0 mM, initial pH 5.0, 30 min, 250 mM H2O2, 50 μg/mL heated extract total protein): 289 ppm
PAA (ppm), 1 min ([2]; NaHCO3 1.0 mM, initial pH 6.0, 1 min, 100 mM H2O2, 50 μg/mL heated extract total protein): 238 ppm
PAA (ppm), 1 min ([2]; NaHCO3 1.0 mM, initial pH 6.0, 1 min, 250 mM H2O2, 50 μg/mL heated extract total protein): 690 ppm
PAA (ppm), 5 min ([2]; NaHCO3 1.0 mM, initial pH 6.0, 5 min, 100 mM H2O2, 50 μg/mL heated extract total protein): 388 ppm
PAA (ppm), 5 min ([2]; NaHCO3 1.0 mM, initial pH 6.0, 5 min, 250 mM H2O2, 50 μg/mL heated extract total protein): 980 ppm
PAA (ppm), 30 min ([2]; NaHCO3 1.0 mM, initial pH 6.0, 30 min, 100 mM H2O2, 50 μg/mL heated extract total protein): 361 ppm
PAA (ppm), 30 min ([2]; NaHCO3 1.0 mM, initial pH 6.0, 30 min, 250 mM H2O2, 50 μg/mL heated extract total protein): 981 ppm
PAA (ppm), 1 min ([2]; NaHCO3 2.5 mM, initial pH 6.5, 1 min, 100 mM H2O2, 50 μg/mL heated extract total protein): 319 ppm
PAA (ppm), 1 min ([2]; NaHCO3 2.5 mM, initial pH 6.5, 1 min, 250 mM H2O2, 50 μg/mL heated extract total protein): 817 ppm
PAA (ppm), 5 min ([2]; NaHCO3 2.5 mM, initial pH 6.5, 5 min, 100 mM H2O2, 50 μg/mL heated extract total protein): 755 ppm
PAA (ppm), 5 min ([2]; NaHCO3 2.5 mM, initial pH 6.5, 5 min, 250 mM H2O2, 50 μg/mL heated extract total protein): 1758 ppm
PAA (ppm), 30 min ([2]; NaHCO3 2.5 mM, initial pH 6.5, 30 min, 100 mM H2O2, 50 μg/mL heated extract total protein): 710 ppm
PAA (ppm), 30 min ([2]; NaHCO3 2.5 mM, initial pH 6.5, 30 min, 250 mM H2O2, 50 μg/mL heated extract total protein): 1748 ppm
PAA (ppm), 1 min ([2]; NaHCO3 5.0 mM, initial pH 6.5, 1 min, 100 mM H2O2, 50 μg/mL heated extract total protein): 330 ppm
PAA (ppm), 1 min ([2]; NaHCO3 5.0 mM, initial pH 6.5, 1 min, 250 mM H2O2, 50 μg/mL heated extract total protein): 735 ppm
PAA (ppm), 5 min ([2]; NaHCO3 5.0 mM, initial pH 6.5, 5 min, 100 mM H2O2, 50 μg/mL heated extract total protein): 972 ppm
PAA (ppm), 5 min ([2]; NaHCO3 5.0 mM, initial pH 6.5, 5 min, 250 mM H2O2, 50 μg/mL heated extract total protein): 1825 ppm
PAA (ppm), 30 min ([2]; NaHCO3 5.0 mM, initial pH 6.5, 30 min, 100 mM H2O2, 50 μg/mL heated extract total protein): 1323 ppm
PAA (ppm), 30 min ([2]; NaHCO3 5.0 mM, initial pH 6.5, 30 min, 250 mM H2O2, 50 μg/mL heated extract total protein): 2222 ppm
PAA (ppm), 1 min ([2]; NaHCO3 10 mM, initial pH 7.0, 1 min, 250 mM H2O2, 50 μg/mL heated extract total protein): 804 ppm
PAA (ppm), 5 min ([2]; NaHCO3 10 mM, initial pH 7.0, 5 min, 250 mM H2O2, 50 μg/mL heated extract total protein): 1951 ppm
PAA (ppm), 30 min ([2]; NaHCO3 10 mM, initial pH 7.0, 30 min, 250 mM H2O2, 50 μg/mL heated extract total protein): 2698 ppm
PAA (ppm), 1 min ([2]; NaHCO3 10 mM, initial pH 8.1, 1 min, 100 mM H2O2, 50 μg/mL heated extract total protein): 407 ppm
PAA (ppm), 5 min ([2]; NaHCO3 10 mM, initial pH 8.1, 5 min, 100 mM H2O2, 50 μg/mL heated extract total protein): 1075 ppm
PAA (ppm), 30 min ([2]; NaHCO3 10 mM, initial pH 8.1, 30 min, 100 mM H2O2, 50 μg/mL heated extract total protein): 1763 ppm
PAA (ppm), 1 min ([2]; NaHCO3 25 mM, initial pH 8.1, 1 min, 100 mM H2O2, 50 μg/mL heated extract total protein): 465 ppm
PAA (ppm), 1 min ([2]; NaHCO3 25 mM, initial pH 8.1, 1 min, 250 mM H2O2, 50 μg/mL heated extract total protein): 848 ppm
PAA (ppm), 5 min ([2]; NaHCO3 25 mM, initial pH 8.1, 5 min, 100 mM H2O2, 50 μg/mL heated extract total protein): 1369 ppm
PAA (ppm), 5 min ([2]; NaHCO3 25 mM, initial pH 8.1, 5 min, 250 mM H2O2, 50 μg/mL heated extract total protein): 2342 ppm
PAA (ppm), 30 min ([2]; NaHCO3 25 mM, initial pH 8.1, 30 min, 100 mM H2O2, 50 μg/mL heated extract total protein): 2217 ppm
PAA (ppm), 30 min ([2]; NaHCO3 25 mM, initial pH 8.1, 30 min, 250 mM H2O2, 50 μg/mL heated extract total protein): 3251 ppm
B1: Thermotoga maritima MSB8 perhydrolase: acetyl xylan esterase with perhydrolase activity from Thermotoga maritima MSB8 (SEQ ID NO: 16), cell extract of E. coli KLP18/pSW207 (protein, listed as Thermotoga maritima)
chain: MAFFDLPLEELKKYRPERYEEKDFDEFWEETLAESEKFPLDPVFERMESHLKTVEAYDVTFSGYRGQRIKGWLLVPKLEEEKLPCVVQYIGYNGGRGFPHDWLFWPSMGYICFVMDTRGQGSGWLKGDTPDYPEGPVDPQYPGFMTRGILDPRTYYYRRVFTDAVRAVEAAASFPQVDQERIVIAGGSQGGGIALAVSALSKKAKALLCDVPFLCHFRRAVQLVDTHPYAEITNFLKTHRDKEEIVFRTLSYFDGVNFAARAKIPALFSVGLMDNICPPSTVFAAYNYYAGPKEIRIYPYNNHEGGGSFQAVEQVKFLKKLFEKG
